B1: NR4a3: NR4a3 (NR4A3; NOR1), nuclear hormone receptor cDNA driver (protein, UniProt Q92570 1-626, looked up)
Nuclear receptor subfamily 4 …: MPCVQAQYSPSPPGSSYAAQTYSSEYTTEIMNPDYTKLTMDLGSTEITATATTSLPSISTFVEGYSSNYELKPSCVYQMQRPLIKVEEGRAPSYHHHHHHHHHHHHHHQQQHQQPSIPPASSPEDEVLPSTSMYFKQSPPSTPTTPAFPPQAGALWDEALPSAPGCIAPGPLLDPPMKAVPTVAGARFPLFHFKPSPPHPPAPSPAGGHHLGYDPTAAAALSLPLGAAAAAGSQAAALESHPYGLPLAKRAAPLAFPPLGLTPSPTASSLLGESPSLPSPPSRSSSSGEGTCAVCGDNAACQHYGVRTCEGCKGFFKRTVQKNAKYVCLANKNCPVDKRRRNRCQYCRFQKCLSVGMVKEVVRTDSLKGRRGRLPSKPKSPLQQEPSQPSPPSPPICMMNALVRALTDSTPRDLDYSRYCPTDQAAAGTDAEHVQQFYNLLTASIDVSRSWAEKIPGFTDLPKEDQTLLIESAFLELFVLRLSIRSNTAEDKFVFCNGLVLHRLQCLRGFGEWLDSIKDFSLNLQSLNLDIQALACLSALSMITERHGLKEPKRVEELCNKITSSLKDHQSKGQALEPTESKVLGALVELRKICTLGLQRIFYLKLEDLVSPPSIIDKLFLDTLPF
B2: SHP: Small Heterodimer Partner (NR0B2), cDNA driver (protein, UniProt Q15466 1-257, looked up)
Nuclear receptor subfamily 0 …: MSTSQPGACPCQGAASRPAILYALLSSSLKAVPRPRSRCLCRQHRPVQLCAPHRTCREALDVLAKTVAFLRNLPSFWQLPPQDQRRLLQGCWGPLFLLGLAQDAVTFEVAEAPVPSILKKILLEEPSSSGGSGQLPDRPQPSLAAVQWLQCCLESFWSLELSPKEYACLKGTILFNPDVPGLQAASHIGHLQQEAHWVLCEVLEPWCPAAQGRLTRVLLTASTLKSIPTSLLGDLFFRPIIGDVDIAGLLGDMLLLR
B3: DAX-1: DAX1 (NR0B1), cDNA driver (protein, UniProt P51843 1-470, looked up)
Nuclear receptor subfamily 0 …: MAGENHQWQGSILYNMLMSAKQTRAAPEAPETRLVDQCWGCSCGDEPGVGREGLLGGRNVALLYRCCFCGKDHPRQGSILYSMLTSAKQTYAAPKAPEATLGPCWGCSCGSDPGVGRAGLPGGRPVALLYRCCFCGEDHPRQGSILYSLLTSSKQTHVAPAAPEARPGGAWWDRSYFAQRPGGKEALPGGRATALLYRCCFCGEDHPQQGSTLYCVPTSTNQAQAAPEERPRAPWWDTSSGALRPVALKSPQVVCEAASAGLLKTLRFVKYLPCFQVLPLDQQLVLVRNCWASLLMLELAQDRLQFETVEVSEPSMLQKILTTRRRETGGNEPLPVPTLQHHLAPPAEARKVPSASQVQAIKCFLSKCWSLNISTKEYAYLKGTVLFNPDVPGLQCVKYIQGLQWGTQQILSEHTRMTHQGPHDRFIELNSTLFLLRFINANVIAELFFRPIIGTVSMDDMMLEMLCTKI
B4: NR4a2: NR4a2 (NR4A2; NURR1), nuclear hormone receptor cDNA driver (protein, UniProt P43354 1-598, looked up)
Nuclear receptor subfamily 4 …: MPCVQAQYGSSPQGASPASQSYSYHSSGEYSSDFLTPEFVKFSMDLTNTEITATTSLPSFSTFMDNYSTGYDVKPPCLYQMPLSGQQSSIKVEDIQMHNYQQHSHLPPQSEEMMPHSGSVYYKPSSPPTPTTPGFQVQHSPMWDDPGSLHNFHQNYVATTHMIEQRKTPVSRLSLFSFKQSPPGTPVSSCQMRFDGPLHVPMNPEPAGSHHVVDGQTFAVPNPIRKPASMGFPGLQIGHASQLLDTQVPSPPSRGSPSNEGLCAVCGDNAACQHYGVRTCEGCKGFFKRTVQKNAKYVCLANKNCPVDKRRRNRCQYCRFQKCLAVGMVKEVVRTDSLKGRRGRLPSKPKSPQEPSPPSPPVSLISALVRAHVDSNPAMTSLDYSRFQANPDYQMSGDDTQHIQQFYDLLTGSMEIIRGWAEKIPGFADLPKADQDLLFESAFLELFVLRLAYRSNPVEGKLIFCNGVVLHRLQCVRGFGEWIDSIVEFSSNLQNMNIDISAFSCIAALAMVTERHGLKEPKRVEELQNKIVNCLKDHVTFNNGGLNRPNYLSKLLGKLPELRTLCTQGLQRIFYLKLEDLVPPPAIIDKLFLDTLPF
B5: GCNF: Germ Cell Nuclear Factor (NR6A1, GCNF1), cDNA driver (protein, UniProt Q15406 1-480, looked up)
Nuclear receptor subfamily 6 …: MERDEPPPSGGGGGGGSAGFLEPPAALPPPPRNGFCQDELAELDPGTISVSDDRAEQRTCLICGDRATGLHYGIISCEGCKGFFKRSICNKRVYRCSRDKNCVMSRKQRNRCQYCRLLKCLQMGMNRKAIREDGMPGGRNKSIGPVQISEEEIERIMSGQEFEEEANHWSNHGDSDHSSPGNRASESNQPSPGSTLSSSRSVELNGFMAFREQYMGMSVPPHYQYIPHLFSYSGHSPLLPQQARSLDPQSYSLIHQLLSAEDLEPLGTPMLIEDGYAVTQAELFALLCRLADELLFRQIAWIKKLPFFCELSIKDYTCLLSSTWQELILLSSLTVYSKQIFGELADVTAKYSPSDEELHRFSDEGMEVIERLIYLYHKFHQLKVSNEEYACMKAINFLNQDIRGLTSASQLEQLNKRYWYICQDFTEYKYTHQPNRFPDLMMCLPEIRYIAGKMVNVPLEQLPLLFKVVLHSCKTSVGKE

Tests used:
hG6PD promoter = test: NHR-promoter luciferase screen, hG6PD promoter; assay type: cell-based, human; settings: for Luc. act., normalized to lacZ / Normalized Luc. act., normalized to control: G6PD promoter reporter, co-transfected HR, without or with its ligand; for Normalized Luc. act., normalized to control: relative to control; for luciferase activity normalized to lacZ activity and to a control, hG6PD: hG6PD promoter-luciferase, CV-1 cells, NHR +/- ligand, control = 1.00
How it was run: (§1)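 CV-1 cells were co-transfected with 50 ng NHR (homodimer or NHR/RXR heterodimer), 100 ng promoter-luciferase construct and 50 ng LacZ. Luciferase was normalized to LacZ and to a no-NHR/no-ligand control.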

mUCP1 promoter = test: NHR-promoter luciferase screen, mUCP1 promoter; assay type: cell-based, mouse; settings: for Luc. act., normalized to lacZ / Normalized Luc. act., normalized to control: mUCP1 promoter reporter, co-transfected HR, with or without its ligand; for Normalized Luc. act., normalized to control: relative to control; for luciferase activity normalized to lacZ activity and to a control, mUCP!: mUCP! promoter-luciferase, CV-1 cells, NHR +/- ligand, control = 1.00
How it was run: as §1

mGhrelin promoter = test: NHR-promoter luciferase screen, mGhrelin promoter; assay type: cell-based, mouse; settings: for Luc. act., normalized to lacZ / Normalized Luc. act., normalized to control: Table 8, mGhrelin; for Results of assays of transcription factor (+/- ligand) with mGhrelin: Table 6d, luciferase activity relative to control (control = 1.00)
How it was run: as §1

MCP-1 promoter = test: NHR-promoter luciferase screen, MCP-1 promoter; assay type: cell-based; settings: for Normalized Luc. act., normalized to control / Luc. act., normalized to lacZ: MCP-1 promoter reporter; for Normalized Luc. act., normalized to control: HR without or with its ligand, relative to control; for Luc. act., normalized to lacZ: hormone receptor (HR) without or with its ligand; for mMCP-1 promoter reporter activity: transcription factor +/- ligand, control = 1.00
How it was run: as §1

hIFNg promoter = test: NHR-promoter luciferase screen, hIFNg promoter; assay type: cell-based, human; settings: for Luc. act., normalized to lacZ / Normalized Luc. act., normalized to control: IFNg promoter, HR component without or with ligand; for hIFNg promoter reporter activity: transcription factor +/- ligand, control = 1.00
How it was run: as §1

hPPARg2 promoter = test: NHR-promoter luciferase screen, hPPARg2 promoter; assay type: cell-based, human; settings: for Luc. act., normalized to lacZ / Normalized Luc. act., normalized to control: PPARG2 promoter, hormone receptor with or without its ligand; for Normalized Luc. act., normalized to control: relative to control; for Results of assays of transcription factor (+/- ligand) with hPPARg2: Table 6d, luciferase activity relative to control (control = 1.00)
How it was run: as §1

Molecule	Luc. act., normalized to lacZ (hG6PD promoter)	Normalized Luc. act., normalized to control (hG6PD promoter)	luciferase activity normalized to lacZ activity and to a control, hG6PD (hG6PD promoter)	Luc. act., normalized to lacZ (mUCP1 promoter)	Normalized Luc. act., normalized to control (mUCP1 promoter)	luciferase activity normalized to lacZ activity and to a control, mUCP! (mUCP1 promoter)	Luc. act., normalized to lacZ (mGhrelin promoter)	Normalized Luc. act., normalized to control (mGhrelin promoter)	Results of assays of transcription factor (+/- ligand) with mGhrelin (mGhrelin promoter)	Normalized Luc. act., normalized to control (MCP-1 promoter)	Luc. act., normalized to lacZ (MCP-1 promoter)	mMCP-1 promoter reporter activity (MCP-1 promoter)	Luc. act., normalized to lacZ (hIFNg promoter)	Normalized Luc. act., normalized to control (hIFNg promoter)	hIFNg promoter reporter activity (hIFNg promoter)	Luc. act., normalized to lacZ (hPPARg2 promoter)	Normalized Luc. act., normalized to control (hPPARg2 promoter)	Results of assays of transcription factor (+/- ligand) with hPPARg2 (hPPARg2 promoter)
B1	43.4	1.2	1.16	3.8	0.9	0.86	29.4	0.6	0.56	0.5	51.9	0.48	16.4	1.0	1.03	1.1	0.6	0.57
B2	43.2	1.2	1.15	4.1	0.9	0.93	56.5	1.1	1.08	1.2	130.4	1.22	16.0	1.0	1.01	1.9	0.9	0.93
B3	46.0	1.2	1.23	6.2	1.4	1.39	63.3	1.2	1.21	1.0	108.9	1.02	24.7	1.6	1.55	1.9	0.9	0.94
B4	41.1	1.1	1.10	4.4	1.0	0.99	31.5	0.6	0.60	0.6	58.9	0.55	24.3	1.5	1.53	1.4	0.7	0.68
B5	46.1	1.2	1.23	3.8	0.8	0.85	50.7	1.0	0.97	0.0		0.00	18.4	1.2	1.15	1.4	0.7	0.69

— US20110263454A1, “Methods of Identifying Functional Characteristics of Promoters, Transcription Modifying Proteins and Transcription Modulating Agents” (Salk Institute for Biological Studies, priority 2008, published 2011)
